From the supplement of paper PMC9112550, “Optimization of the antimicrobial peptide Bac7 by deep mutational scanning” (BMC Biology, 2022)

Test system: Escherichia coli TOP10
Test: shrunken log2 fold change of peptide-encoding DNA abundance (4.5 h post-induction vs induction); higher = less antimicrobial activity (less host growth inhibition)
Conditions: time post-induction: 4.5 h; library: site-saturation at positions 5, 18, 19, 20
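Also: peptides expressed intracellularly from a pBAD plasmid library in pooled LB shake-flask culture, induced with 0.3% L-arabinose, DNA abundance read by NGS, three biological replicates, DESeq2 with apeglm shrinkage.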

Sequence | shrunken log2 fold change
RRIRDRPPRLPRPRPRPVIEPRP | 0.662
RRIRSRPPRLPRPRPRPIMVPRP | -0.644
RRIRGRPPRLPRPRPRPDLIPRP | 0.87
RRIRTRPPRLPRPRPRPGTHPRP | -0.0792
RRIRRRPPRLPRPRPRPMGYPRP | 0.0381
RRIRVRPPRLPRPRPRPCMMPRP | -0.33
RRIRMRPPRLPRPRPRPTRIPRP | 0.447
RRIRDRPPRLPRPRPRPISAPRP | 0.0787
RRIRKRPPRLPRPRPRPNEFPRP | -0.042
RRIRKRPPRLPRPRPRPRIHPRP | -0.0869
RRIRSRPPRLPRPRPRPLPAPRP | 0.494
RRIRARPPRLPRPRPRPWQNPRP | 0.05
RRIRCRPPRLPRPRPRPKRFPRP | 0.322
RRIRPRPPRLPRPRPRPMDEPRP | 0.119
RRIRSRPPRLPRPRPRPQILPRP | -0.0216
RRIRHRPPRLPRPRPRPSIHPRP | -0.924
RRIRLRPPRLPRPRPRPSWVPRP | -0.141
RRIRKRPPRLPRPRPRPDIGPRP | -0.0485
RRIRTRPPRLPRPRPRPAPDPRP | 0.15
RRIRSRPPRLPRPRPRPTGVPRP | 0.0241
RRIRVRPPRLPRPRPRPRQAPRP | 0.224
RRIRKRPPRLPRPRPRPCMKPRP | -0.0153
RRIRFRPPRLPRPRPRPQVEPRP | -0.0419
RRIRWRPPRLPRPRPRPPNQPRP | 0.363
RRIRIRPPRLPRPRPRPTVNPRP | -0.608

Sequence | shrunken log2 fold change
RRIRLRPPRLPRPRPRPLDAPRP | 0.112
RRIRWRPPRLPRPRPRPQYQPRP | -0.268
RRIRTRPPRLPRPRPRPQSFPRP | 0.015
RRIRIRPPRLPRPRPRPFTNPRP | -0.16
RRIRWRPPRLPRPRPRPKDHPRP | 0.182
RRIRTRPPRLPRPRPRPPVHPRP | 0.0813
RRIRPRPPRLPRPRPRPLKGPRP | 0.045
RRIRDRPPRLPRPRPRPIVSPRP | 0.041
RRIRTRPPRLPRPRPRPLMIPRP | -0.0131
RRIRLRPPRLPRPRPRPDGHPRP | 0.0499
RRIRHRPPRLPRPRPRPFILPRP | -0.675
RRIRWRPPRLPRPRPRPQLTPRP | 0.325
RRIRMRPPRLPRPRPRPGFAPRP | 1.35
RRIRARPPRLPRPRPRPDFTPRP | -0.0266
RRIRGRPPRLPRPRPRPYELPRP | -0.036
RRIRARPPRLPRPRPRPVSAPRP | 0.455
RRIRRRPPRLPRPRPRPHFGPRP | 0.111
RRIRKRPPRLPRPRPRPYTWPRP | -0.231
RRIRSRPPRLPRPRPRPFAKPRP | -0.136
RRIRRRPPRLPRPRPRPQHPPRP | 0.526
RRIRWRPPRLPRPRPRPLCVPRP | 0.0447
RRIRLRPPRLPRPRPRPKSLPRP | -0.467
RRIRVRPPRLPRPRPRPITVPRP | -1.15
RRIRDRPPRLPRPRPRPWLYPRP | -0.68
RRIRIRPPRLPRPRPRPQDGPRP | 0.0409

Sequence | shrunken log2 fold change
RRIRPRPPRLPRPRPRPHFKPRP | 1.37
RRIRVRPPRLPRPRPRPGFAPRP | 0.299
RRIRPRPPRLPRPRPRPIQYPRP | -0.642
RRIRARPPRLPRPRPRPKVPPRP | 0.412
RRIRCRPPRLPRPRPRPFMYPRP | -0.592
RRIRGRPPRLPRPRPRPGWRPRP | 1.09
RRIRKRPPRLPRPRPRPVLHPRP | 0.484
RRIRMRPPRLPRPRPRPFDLPRP | 0.16
RRIRYRPPRLPRPRPRPCYLPRP | -0.0778
RRIRFRPPRLPRPRPRPKKMPRP | 0.153
RRIRFRPPRLPRPRPRPMQAPRP | 0.119
RRIRKRPPRLPRPRPRPDYMPRP | 0.0305
RRIRQRPPRLPRPRPRPVRMPRP | 0.149
RRIRNRPPRLPRPRPRPLVIPRP | -0.432
RRIRLRPPRLPRPRPRPYSHPRP | -0.444
RRIRLRPPRLPRPRPRPPNTPRP | 0.00316
RRIRFRPPRLPRPRPRPAVHPRP | -0.0819
RRIRYRPPRLPRPRPRPGRIPRP | 0.0959
RRIRERPPRLPRPRPRPAPFPRP | -0.244
RRIRKRPPRLPRPRPRPSFSPRP | -0.0191
RRIRSRPPRLPRPRPRPCQAPRP | 0.116
RRIRARPPRLPRPRPRPDINPRP | 0.0789
RRIRIRPPRLPRPRPRPLSRPRP | -0.243
RRIRRRPPRLPRPRPRPYHPPRP | -0.34
RRIRRRPPRLPRPRPRPLQMPRP | -0.133

Sequence | shrunken log2 fold change
RRIRARPPRLPRPRPRPDSMPRP | 0.02
RRIRIRPPRLPRPRPRPMRRPRP | 0.0307
RRIRSRPPRLPRPRPRPNTTPRP | -0.194
RRIRRRPPRLPRPRPRPLNRPRP | -0.169
RRIRTRPPRLPRPRPRPRIVPRP | -0.0873
RRIRLRPPRLPRPRPRPKGMPRP | -0.0948
RRIRARPPRLPRPRPRPVDWPRP | 1.01
RRIRSRPPRLPRPRPRPAKDPRP | 0.135
RRIRERPPRLPRPRPRPFEMPRP | -0.536
RRIRCRPPRLPRPRPRPNMSPRP | -0.204
RRIRARPPRLPRPRPRPHHTPRP | -0.364
RRIRDRPPRLPRPRPRPLRDPRP | 0.537
RRIRGRPPRLPRPRPRPHDKPRP | 0.475
RRIRQRPPRLPRPRPRPGRTPRP | -0.433
RRIRPRPPRLPRPRPRPANIPRP | -0.617
RRIRCRPPRLPRPRPRPRGWPRP | 0.605
RRIRRRPPRLPRPRPRPIVCPRP | 0.539
RRIRYRPPRLPRPRPRPTMMPRP | -1.19
RRIRERPPRLPRPRPRPLMAPRP | -0.169
RRIRIRPPRLPRPRPRPLRQPRP | 0.335
RRIRMRPPRLPRPRPRPCNQPRP | -0.0399
RRIRYRPPRLPRPRPRPCMGPRP | -0.198
RRIRVRPPRLPRPRPRPTEHPRP | -0.0827
RRIRRRPPRLPRPRPRPCEGPRP | -0.0173
RRIRFRPPRLPRPRPRPIWGPRP | 0.0125

Sequence | shrunken log2 fold change
RRIRFRPPRLPRPRPRPDFTPRP | 0.138
RRIRGRPPRLPRPRPRPTGIPRP | -0.0412
RRIRVRPPRLPRPRPRPVHTPRP | -0.0364
RRIRGRPPRLPRPRPRPSIHPRP | 0.162
RRIRMRPPRLPRPRPRPPFHPRP | 0.0707
RRIRTRPPRLPRPRPRPKEHPRP | -0.174
RRIRGRPPRLPRPRPRPMLRPRP | 0.117
RRIRARPPRLPRPRPRPQRPPRP | 0.517
RRIRKRPPRLPRPRPRPLFCPRP | 0.177
RRIRMRPPRLPRPRPRPRRVPRP | 1.3
RRIRWRPPRLPRPRPRPMWYPRP | -0.0539
RRIRFRPPRLPRPRPRPVCYPRP | -0.495
RRIRPRPPRLPRPRPRPNEKPRP | 0.023
RRIRTRPPRLPRPRPRPQYAPRP | -0.317
RRIRVRPPRLPRPRPRPLDRPRP | -0.117
RRIRIRPPRLPRPRPRPEMVPRP | -0.14
RRIRVRPPRLPRPRPRPLIHPRP | -0.393
RRIRCRPPRLPRPRPRPPPGPRP | 1.47
RRIRGRPPRLPRPRPRPNEEPRP | 0.621
RRIRWRPPRLPRPRPRPEMLPRP | 1.17
RRIRLRPPRLPRPRPRPKVKPRP | -0.0219
RRIRHRPPRLPRPRPRPKQFPRP | -0.108
RRIRYRPPRLPRPRPRPNFMPRP | -0.821
RRIRYRPPRLPRPRPRPGSTPRP | -0.0367
RRIRVRPPRLPRPRPRPIRWPRP | -0.0339

Sequence | shrunken log2 fold change
RRIRFRPPRLPRPRPRPEGPPRP | 0.0494
RRIRSRPPRLPRPRPRPIMDPRP | -0.0619
RRIRKRPPRLPRPRPRPNDLPRP | -0.054
RRIRNRPPRLPRPRPRPYYFPRP | -0.695
RRIRDRPPRLPRPRPRPFSCPRP | 0.171
RRIRLRPPRLPRPRPRPKVEPRP | -0.0879
RRIRLRPPRLPRPRPRPGRHPRP | 0.0767
RRIRTRPPRLPRPRPRPMDNPRP | -0.458
RRIRYRPPRLPRPRPRPRHHPRP | -0.846
RRIRKRPPRLPRPRPRPIHFPRP | -0.241
RRIRHRPPRLPRPRPRPAFLPRP | 0.305
RRIRRRPPRLPRPRPRPMHYPRP | 0.117
RRIRARPPRLPRPRPRPHGAPRP | 0.52
RRIRARPPRLPRPRPRPMMVPRP | 0.212
RRIRVRPPRLPRPRPRPFSTPRP | -0.496
RRIRRRPPRLPRPRPRPGCLPRP | 0.702
RRIRYRPPRLPRPRPRPMLFPRP | -0.347
RRIRTRPPRLPRPRPRPCWPPRP | 0.0465
RRIRNRPPRLPRPRPRPWAAPRP | -0.109
RRIRLRPPRLPRPRPRPDSTPRP | -0.603
RRIRERPPRLPRPRPRPILPPRP | -0.182
RRIRERPPRLPRPRPRPYNYPRP | -0.519
RRIRWRPPRLPRPRPRPPMHPRP | 0.429
RRIRCRPPRLPRPRPRPPYKPRP | -0.511
RRIRIRPPRLPRPRPRPTIYPRP | -0.865
